Usually IC50 stands for the point on the concentration scale where inhibition reaches its midpoint. The low end stands for greater potency in that assay, the high end for weaker potency in that assay.

Assay [1] concerns the target endothelial cell receptor for TKPPR on human aortic endothelial cells (HAEC). Nature of the assay: competition on HAEC: KDR/Fc 250 ng/ml against 5% BRU-114 bubbles.
For assay [2] the target is unchanged. Nature of the assay: competition on HAEC: KDR/Fc 500 ng/ml against 5% BRU-114 bubbles.
Assay [3] has the same target. Nature of the assay: competition on HAEC: KDR/Fc 2500 ng/ml against 5% BRU-114 bubbles.
For assay [4] the target is unchanged. Nature of the assay: competition on HAEC: KDR/Fc 1000 ng/ml against 5% BRU-114 bubbles.
Assay [5] shares this target. Nature of the assay: competition on HAEC: KDR/Fc 125 ng/ml against 5% BRU-114 bubbles.
For assay [6] the target is unchanged. Nature of the assay: fluorescent beads on confluent HAEC, static, Experiment 1, image analysis.
For assay [7] the target is unchanged. Nature of the assay: competition on HAEC: VEGF121 400 ng/ml against 2% BRU-114 bubbles.
Assay [8] shares this target. Nature of the assay: competition on HAEC: VEGF121 100 ng/ml against 2% BRU-114 bubbles.
Assay [9] shares this target. Nature of the assay: competition on HAEC: VEGF121 200 ng/ml against 2% BRU-114 bubbles.
For assay [10] the target is unchanged. Nature of the assay: competition on HAEC: VEGF165 25 ng/ml against 2% BRU-114 bubbles.
For assay [11] the target is unchanged. Nature of the assay: competition on HAEC: VEGF165 6.25 ng/ml against 5% BRU-114 bubbles.
Assay [12] shares this target. Nature of the assay: competition on HAEC: VEGF165 75 ng/ml against 5% BRU-114 bubbles.
Assay [13] has the same target. Nature of the assay: competition on HAEC: VEGF165 12.5 ng/ml against 5% BRU-114 bubbles.
The target is the same in assay [14]. Nature of the assay: competition on HAEC: VEGF165 against 5% BRU-114 bubbles.
For assay [15] the target is unchanged. Nature of the assay: competition on HAEC: VEGF165 200 ng/ml against 2% BRU-114 bubbles.
Assay [16] shares this target. Nature of the assay: competition on HAEC: VEGF165 100 ng/ml against 2% BRU-114 bubbles.
The target is the same in assay [17]. Nature of the assay: competition on HAEC: VEGF165 50 ng/ml against 5% BRU-114 bubbles.
Assay [18] shares this target. Nature of the assay: competition on HAEC: VEGF165 25 ng/ml against 5% BRU-114 bubbles.

Chain of soluble human KDR/Fc chimera (R&D Systems) (P35968 20-764, change not shown): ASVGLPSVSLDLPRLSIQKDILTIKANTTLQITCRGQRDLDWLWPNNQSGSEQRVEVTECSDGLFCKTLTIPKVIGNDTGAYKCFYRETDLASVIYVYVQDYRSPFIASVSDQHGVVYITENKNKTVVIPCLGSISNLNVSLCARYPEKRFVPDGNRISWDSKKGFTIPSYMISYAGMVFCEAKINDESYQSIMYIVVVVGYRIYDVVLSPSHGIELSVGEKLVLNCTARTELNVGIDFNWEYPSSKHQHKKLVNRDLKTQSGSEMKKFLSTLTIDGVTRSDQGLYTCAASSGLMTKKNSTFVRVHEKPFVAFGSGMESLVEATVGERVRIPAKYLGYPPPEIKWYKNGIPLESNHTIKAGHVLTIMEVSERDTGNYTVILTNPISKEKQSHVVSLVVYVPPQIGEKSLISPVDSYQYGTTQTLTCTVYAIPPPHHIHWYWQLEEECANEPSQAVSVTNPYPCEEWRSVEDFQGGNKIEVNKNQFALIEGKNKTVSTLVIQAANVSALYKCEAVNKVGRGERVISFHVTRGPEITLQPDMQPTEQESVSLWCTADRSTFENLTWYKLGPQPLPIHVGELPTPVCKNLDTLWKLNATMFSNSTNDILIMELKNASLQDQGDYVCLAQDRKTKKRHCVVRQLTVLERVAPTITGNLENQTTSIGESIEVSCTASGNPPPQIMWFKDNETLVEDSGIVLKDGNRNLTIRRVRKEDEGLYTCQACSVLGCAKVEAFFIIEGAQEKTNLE

For the substance “soluble human KDR/Fc chimera (R&D Systems) (from UniProt P35968 20-764) (Fc fusion)”, the Bubbles Bound in [1] turned out to be 786 bubbles; in assay [2], 342 bubbles; in [3], 84 bubbles; in assay [4] it was 75 bubbles; in [5], 1030 bubbles.
For “BSA-conjugated fluorescent microspheres (from UniProt P02769 25-607)”, the Integrated density of bound beads (arbitrary units) in [6] is 1.61.
On to “VEGF121 (from UniProt P15692 27-147) (ligand)”, for which the values for the Bubbles Bound in assay [7], in [8] and in [9] were 778 bubbles, 878 bubbles and 849 bubbles, respectively.
As to “VEGF165 (from UniProt P15692 27-191) (ligand)”, the Bubbles Bound in [10] came to 144 bubbles; in [11], 1180 bubbles; in assay [12], 190 bubbles; in assay [13], 599 bubbles; in assay [15] it was 70 bubbles; in [16] it was 94 bubbles. Besides, the Bubbles Bound in assay [17] amounted to 226 bubbles; in assay [18], 342 bubbles. In assay [14], this substance came in with a concentration for half-maximal inhibition (IC50) of 0.0125 µg/mL.

The values are drawn from US7109167.
